One block for each substance: values may come before it.
How the values were obtained:
[1] = target: protein kinase A activity endogenous to HEK 293 cells (co-immunoprecipitated with tagged RXRα); test: cell-based or functional assay
protein kinase A [2] = test: Km of synthetic peptide substrates for protein kinase A; type: biochemical
protein kinase A [3] = settings: specific PKA substrate; cited from earlier work
[4] = test system: protein kinase A activity associated with RXRα; test: Protein kinase A activity in anti-Flag immunoprecipitates of PH-RXRα or RXRα transfected HEK 293 cells, synthetic peptide substrate; type: cell-based, human; settings: PH-RXRα, ligand-treated cells, inhibitor added to kinase reaction, substrate LRRASLG
Procedure: 293 cells were transfected with PH-RXRα. Sample 1: 0.1% DMSO (10 minutes). […] Sample 3: 0.1% DMSO (30 minutes).
Sample 1: 0.1% DMSO (10 minutes). […] Sample 3: 0.1% DMSO (30 minutes). […] Sample 5: No immunoprecipitate.
Sample 1: 0.1% DMSO. […] Sample 3: 0.1% DMSO with PKA inhibitor. […] Sample 5: 0.1% DMSO.
Following immunoprecipitation with anti-Flag antibody, the synthetic PKA substrate, LRRASLG (SEQ ID NO: 59), was added to the immunoprecipitate along with γ-ATP.
HEK 293 were cultured and transfected essentially as described above. Immunoprecipitates were prepared using the anti-Flag antibody, M2, as described above. Assays for protein kinase A activity were performed as follows. Immunoprecipitated complexes were resuspended in 40 μl of Kinase Assay Buffer (30 mM Tris-HCl, pH 7.4 and 10 mM MgCl2). Kinase reactions were initiated by addition of 10 μl of 500 μM synthetic peptide LRRASLG (SEQ ID NO: 59) or […] (SEQ ID NO: 60) prepared by Upstate Biotechnology (Lake Placid, N.Y.) and addition of 50 μM [γ-^32P]ATP (10 μCi) to the immune-complexes. […]
Incorporated ^32P was separated from free label by applying the reaction mixture onto P81 phosphocellulose paper and subsequently washing the paper three times with 0.75% phosphoric acid and once with acetone. Protein kinase reaction samples were analyzed in a scintillation counter to determine the amount of ^32P-incorporation.

[5] = target: T1, RXRα phosphorylation by protein kinase A (Homo sapiens, UniProt P19793); test: Phosphorylation of immunoprecipitated RXRα by purified PKA; type: biochemical; settings: inhibitor added to kinase reaction
T1 construct: host or cells: HEK293
T1 sequence (P19793 1-462): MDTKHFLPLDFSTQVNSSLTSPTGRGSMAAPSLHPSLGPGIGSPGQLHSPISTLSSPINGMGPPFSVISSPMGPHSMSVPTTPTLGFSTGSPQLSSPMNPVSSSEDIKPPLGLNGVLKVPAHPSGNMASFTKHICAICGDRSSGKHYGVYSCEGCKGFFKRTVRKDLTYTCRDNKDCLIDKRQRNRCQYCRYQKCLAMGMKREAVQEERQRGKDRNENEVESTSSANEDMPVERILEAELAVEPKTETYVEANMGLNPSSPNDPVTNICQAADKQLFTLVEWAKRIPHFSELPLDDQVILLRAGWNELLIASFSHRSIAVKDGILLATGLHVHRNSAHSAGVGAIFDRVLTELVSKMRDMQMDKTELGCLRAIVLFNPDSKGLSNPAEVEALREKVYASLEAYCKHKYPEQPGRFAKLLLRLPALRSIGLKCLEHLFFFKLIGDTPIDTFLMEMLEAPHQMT
Procedure: Left panel: Cells were immunoprecipitated with anti-FLAG antibody, and the immunoprecipitates analyzed by SDS-PAGE and blotting with anti-PKA antibody. Right panel: Cells were immunoprecipitated with anti-PKA antibody, and the immunoprecipitates analyzed by SDS-PAGE and blotting with anti-FLAG antibody. B. Phosphorylation of RXRα by PKA. […] PKA I and PKC I indicate inhibitors of PKA and PKC, respectively.
RXRα-containing immunoprecipitates prepared with anti-Flag antibody were incubated with purified catalytically active PKA (Upstate Biotechnology) and […]; in addition, protein kinase A inhibitor or protein kinase C inhibitor was added to some reactions as indicated. The kinase reaction products were analyzed by SDS-PAGE.

[6] = target: protein kinase A activity endogenous to 3T3-L1 adipocytes; test: cell-based or functional assay
[7] = target: Flag-tagged PH-RXRα (Flag tag, pleckstrin homology domain of human insulin receptor substrate-1, human RXRα) (UniProt P35568)
[8] = test system: T2, Flag-RXRα (human retinoid X receptor α fused to the Flag epitope tag)
T2 sequence: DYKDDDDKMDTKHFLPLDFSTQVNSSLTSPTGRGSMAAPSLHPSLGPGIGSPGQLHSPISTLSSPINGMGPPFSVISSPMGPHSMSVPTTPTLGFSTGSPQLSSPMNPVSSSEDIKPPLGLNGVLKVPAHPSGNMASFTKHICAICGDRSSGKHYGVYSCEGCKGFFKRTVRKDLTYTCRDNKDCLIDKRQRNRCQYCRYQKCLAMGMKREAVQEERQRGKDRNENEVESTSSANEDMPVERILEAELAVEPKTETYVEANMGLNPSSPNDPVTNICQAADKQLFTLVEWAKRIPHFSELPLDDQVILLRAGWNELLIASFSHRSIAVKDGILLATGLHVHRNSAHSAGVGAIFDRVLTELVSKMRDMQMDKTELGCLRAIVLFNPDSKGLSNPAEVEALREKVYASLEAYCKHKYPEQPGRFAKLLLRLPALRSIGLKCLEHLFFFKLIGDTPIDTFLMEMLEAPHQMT

protein kinase A activity in anti-FLAG immunoprecipitates (32P incorporation into …), AGN194204-treated against DMSO-treated cells [1]: > 2 fold
Substance: Flag-tagged PH-RXRα (Flag tag, pleckstrin homology domain of human insulin receptor substrate-1, human RXRα) (from UniProt P35568 12-115)

fold higher Vmax than kemptide (protein kinase A [2]; relative to kemptide): about 2 fold
fold lower Km than kemptide (protein kinase A [2]; relative to kemptide (SEQ ID NO: 59)): approximately 40 fold
Substance: GRTGRRNSI [SEQ ID NO: 60, specific protein kinase A substrate]
Km (protein kinase A [3]): 110 nM

inhibition of RXRα phosphorylation by purified PKA [5]: not
Substance: RFARKGALRGKNV
inhibition of RXRα-associated PKA activity [4]: not

PKA activity in anti-RXRα (D20) immunoprecipitates (32P incorporation into SEQ ID NO: 59), ligand-treated against vehicle-treated cells [6]: 2 fold
Substance: endogenous RXRα of untransfected 3T3-L1 adipocytes (from UniProt P28700 1-467) (receptor)

Substance: protein kinase A activity endogenous to HEK 293 cells (co-immunoprecipitated with tagged RXRα)
protein kinase A activity in anti-Flag immunoprecipitates (32P incorporation into LRRASLG) [7]: significantly more protein kinase A activity was detected in immunoprecipitates from cells treated with AGN194024 ligand than in immunoprecipitates treated with control vehicle
protein kinase A activity in anti-Flag immunoprecipitates (32P incorporation into LRRASLG) [8]: protein kinase A activity associated with RXRα lacking a fused pleckstrin homology domain was significantly enhanced in cells treated with 10^-7 M AGN194204 as compared to control vehicle

Substance: purified catalytically active PKA (Upstate Biotechnology)
in vitro phosphorylation of immunoprecipitated RXRα by purified PKA (SDS-PAGE) [8]: RXRα was phosphorylated, and the extent of phosphorylation was increased by addition of RXRα ligand, AGN194204
